According to patent publication US20090011979A1 (VIRON THERAPEUTICS, published 2009):

T1: mouse IL-18 (mouse, UniProt P70380 36-192)
T1 construct: also called murine IL-18
T1 sequence: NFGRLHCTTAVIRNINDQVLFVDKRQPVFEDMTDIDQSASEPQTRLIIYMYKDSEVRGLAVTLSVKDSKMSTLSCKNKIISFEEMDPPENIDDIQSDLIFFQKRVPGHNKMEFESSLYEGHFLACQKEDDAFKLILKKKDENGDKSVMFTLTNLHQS

T2: human IL-18 (human, UniProt Q14116 37-193)
T2 construct: also called hIL-18
T2 sequence: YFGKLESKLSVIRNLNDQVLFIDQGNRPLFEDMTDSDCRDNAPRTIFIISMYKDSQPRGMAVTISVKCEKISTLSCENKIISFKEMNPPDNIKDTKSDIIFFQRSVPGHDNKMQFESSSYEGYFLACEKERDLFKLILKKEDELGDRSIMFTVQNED

B1: tagged YCI (YMTV IL-18 bp with a C-terminal myc/his tag) (other)
chain: EKECDKHRSVNIQVPMKETSEVLLRCTGSSYFKHFSYVYWLVGESETVDQLQQNSGYGETSHPSKPHECGNLPSADLVLTNMTEKMRDTKLTCVLMDPDGHIDESLVLREVWDCFNKT
notes: also called 6xHis-tagged YCI; his-tagged version of the YCI
B2: untagged YCI (YMTV IL-18 bp, YMTV Cytokine Inhibitor, without tag) (other)
chain: B1 chain
notes: also called IL-18 bp from YMTV; purified untagged YCI protein

What was measured:
mouse IL-18 = biological target: T1, mouse IL-18; experiment: Biacore (row 'Human/mouse IL-18 Biacore')
human IL-18 [1] = biological target: T2, human IL-18; experiment: immunoprecipitation (row 'Human IL-18 immunoprecipitation')
human IL-18 [2] = biological target: T2, human IL-18; experiment: Biacore (row 'Human/mouse IL-18 Biacore')

Binder	binding result (mouse IL-18)	binding result (human IL-18 [1])	binding result (human IL-18 [2])
B1	binds	binds	
B2	binds		binds
